Test: label from the status in PepcDB records

| Sequence | protein production |
| --- | --- |
| MFWIVLIVILLLALAGLFFVRAQSEREWMREVSAWQEKKGEKQAELPEIKDGMPDFPEFSLMLFHAVKTAVYWLFVGVVRFCRNYLAHESEPDRPVPPASANRADVPTASDGYSDSGNGTEEAETEAAEAAEEEAADTEDIATAVIDNRRIPFDRSIAEGLMQSESKTSPVRPVFKEITLEEATRALSSAALRETKKRYIDAFEKNGTAVPKVRVSDTPMEGLQIIGLDDPVLQRTYSRMFDADKEAFSESADYGFEPYFEKQHPSAFSAVKAENARNAPFRRHAGQEKGQAEAKSPDVSQGQSVSDGTAVRDARRRVSVNLKEPNKATVSAEARISRLIPESRTVVGKRDVEMPSETENVFTETVSSVGYGGPVYDEAADIHIEEPAAPDAWVVEPPEVPEVAVPEIDILPPPPVSEIYNRTYEPPAGFEQAQRSRIAETDHLAADVLNGGWQEETAAIADDGSEGAAERSSGQYLSETEAFGHDSQAVCPFEDVPSERPSCRVSDTEADEGAFQSEETGAVSEHLPTTDLLLPPLFNPEATQTEEELLENSITIEEKLAEFKVKVKVVDSYSGPVITRYEIEPDVGVRGNSVLNLEKDLARSLGVASIRVVETIPGKTCMGLELPNPKRQMIRLSEIFNSPEFAESKSKLTLALGQDITGQPVVTDLGKAPHLLVAGTTGSGKSVGVNAMILSMLFKAAPEDVRMIMIDPKMLELSIYEGITHLLAPVVTDMKLAANALNWCVNEMEKRYRLMSFMGVRNLAGFNQKIAEAAARGEKIGNPFSLTPDDPEPLEKLPFIVVVVDEFADLMMTAGKKIEELIARLAQKARAAGIHLILATQRPSVDVITGLIKANIPTRIAFQVSSKIDSRTILDQMGAENLLGQGDMLFLPPGTAYPQRVHGAFASDEEVHRVVEYLKQFGEPDYVDDILSGGGSEELPGIGRSGDGETDPMYDEAVSVVLKTRKASISGVQRALRIGYNRAARLIDQMEAEGIVSAPEHNGNRTILVPLDNA | failed |
| MFYHDFRTMLIRLRAQFIKELLCILRDPRNRVVVFVPPLMQLLIFSYAATMEVRNLDIAVYNQDTGRAAQELVWHLEAARFIAQVHHVHSNTALREQLVQGKVIAAIAIPADFSRTVAVSGSGHAQVLVDGRRSNSGQIVVGYLSSIARDIRFTADTAPIPETSVTVRHWFNPNLVYLWFMVPGLTGTLAFFSALMITALSIARERELGTFDQLLVSPASTLEIILSKSLPALVISSLLALLMITLAIWFFRIPFTGSFGLLLIGLVLFILSAVGIGLVISAISMTQQQAILGGFVIGVPTVLISGFATPVENMPLLLQWLAQAIPLTHFLIIIEGCFLKALPPRDVLANLWPLAVIAFTMLPIAMIFARSRLQ | failed |
| MGAAGGGWRMSERHLRRSTHKVGDVTLGPVHRLSCHCGAVQIDLDLPHGLLDPRRCDCSMCRRRGAIVASVSLDGLHVLQGEDVLRLYQFNTQTAAHYFCGVCGIYTHHRRRSNPNEYGYNVGCLEGVNPYALNIAVPVEDGVNHPADRVTAAS | failed |
| MGACVCRMNPDNETMSVSSASISRPASAGIAMGAARKNRPLCHETIRWRSDVPLTEGQLRSKRDEFWDTAPAFDGRKEIWDALRAATTAAEGLDFQMAQAILDGANVSVPNGYLTECYDELGTQYKVPIYCLSYPINIVKEENGRDSPAEYSEPVDGGTDIFLKLRISSTMTDVKLPVYSKDTVGQCKKKLQAAEGVDACCQRWFYSGKLLGDKVPIDECSIHQGYVVQVIVNTEHYNHDNSTSTAHAS | failed |
| MGAIQFQTAPKLPVTVLLAAKNEAVNLPRCLAALGPAERVIVLDSHSTDATAEIARQHGAEVAQFDYRGGYPKKRQWALDTIPFGTPWILLLDADEVVPEDLWKEIGNVTRQPDADAYLITKGFHFLGRKFKHGGFSHSAVLLFKTGMARFEKLFDDDLNGLDMEIHERVVVDGRIGKLKTPLVHEDFKGLEAYITRHNKYSTWEAKVRHHYLTTGRYGEQTIKPRLFGNSQERRRFLKALIIRLPFEPQIWFIYHYLLRLGFLEGRPGLIASQIRAAYIAQARAKIYELRLNTPSRLEHHHHHH | failed |
| MGATVPQRKALVLKASRILLSEKPLPERLQAFLEALLEGPFPIRSGKLYLRKGEGLRLVAQLGGEAGGEEVALSLEGGGRALGRLSLRLAPAASLAPEDRLALEEAAGILALALLRERAERAERVLRRAGECATQAAGEGDLLHKVCALLVEEGYALAWVGEARPTGEVVPREAAGAVGYLEGIRVRWDEAPEGQGPTGRALRSGRPQVLRSVEEDPRYAPWRERAQVFGFASSAAFPLRVEGRVWGSLNVYAPEEDAFDEEEVRLLEDLARLIGHALDRLRALERLRFLAYHDPLTGLPNRRRLEEDFRLLRGRWALCRLDLVDLYEVNEAYGREAGDALLARTSRRLQALLPREGRLYRLEGGEFLALLPGGAKEAEAFGQALGEALEAPLDLGEGRAFRVRVRAGVALFPDDANTLSELLRRADQALREAKKAGKRWTFYSLGLGEAVRERREVLAGLEKALAEGELRLYGQPIVDLATGRPAGVEVLLRWARGEEVVPASRFIPVAEEAGLIPELDLYVLRALAQMTTALPLHVNLSPQTLLDERLLLGLAPLKGRNLRLELTEHALASPGAEARLKELSCMGFPVVLDDFGQGYASLRLLVGLPFSMAKVDRGFVGGIGLDPKAEAALKAVLALSRELEIALVAEGVEREDQWAWLRSVGYSLGQGYLWGRPAPLEEVLYP | failed |
| MGCCYSLSSTVDPVQDHTTDASSEPRNGGGEDPPLTKFSFSALKTATNHFSPENIVSDQTSDVVFKGRLQNGGFVAIKRFNNMAWSDPKLFLEEAQRVGKLRHKRLVNLIGYCCDGDKRFLVADFMANDTLAKRLFQRKYQTMDWSIRLRVAYFVAEALDYCNTAGFASYNNLSAYKVLFDEDGDACLSCFGLMKEINNDQITTGSVNPENVIYRFGTVLVNLLSGKQIPPSHAPEMIHRKNVFKLMDPYLKGKFSIDEANVVYKLASQCLKYEGQESPNTKEIVATLETLQTRTEAPSYEVVEMTNQEKDASSSSNLSPLGEACLRMDLASIHSILVLAGYDDDKDIIELSFEEWIQEVKELQDVRRNGDRAFVEQDFKTAIACYSQFVEERSLVYPSVYARRSLSYLFCDEPEKALLDGMHAQGVFPDWPTAFYLQSVALAKLDMNTDSADTLKEAALLEVKK | failed |
| MGDPAPARSLDDIDLSALRDPAGIFELVEVVGNGTYGQVYKGRHVKTGQLAAIKVMDVTEDEEEEIKQEINMLKKYSHHRNIATYYGAFIKKSPPGNDDQLWLVMEFCGAGSVTDLVKNTKGNALKEDCIAYICREILRGLAHLHAHKVIHRDIKGQNVLLTENAEVKLVDFGVSAQLDRTVGRRNTFIGTPYWMAPEVIACDENPDATYDYRSDIWSLGITAIEMAEGAPPLCDMHPMRALFLIPRNPPPRLKSKKWSKKFIDFIDTCLIKTYLSRPPTEQLLKFPFIRDQPTERQVRIQLKDHIDRSRKKRGEKEETEYEYSGSEEEDDSHGEEGEPSSIMNVPGESTLRREFLRLQQENKSNSEALKQQQQLQQQQQRDPEAHIKHLLHQRQRRIEEQKEERRRVEEQQRREREQRKLQEKEQQRRLEDMQALRREEERRQAEREQEYKRKQLEEQRQSERLQRQLQQEHAYLKSLQQQQQQQQLQKQQQQQLLPGDRKPLYHYGRGMNPADKPAWAREVEERTRMNKQQNSPLAKSKPGSTGPEPPIPQASPGPPGPLSQTPPMQRPVEPQEGPHKSLVAHRVPLKPYAAPVPRSQSLQDQPTRNLAAFPASHDPDPAIPAPTATPSARGAVIRQNSDPTSEGPGPSPNPPAWVRPDNEAPPKVPQRTSSIATALNTSGAGGSRPAQAVRARPRSNSAWQIYLQRRAERGTPKPPGPPAQPPGPPNASSNPDLRRSDPGWERSDSVLPASHGHLPQAGSLERNRVGVSSKPDSSPVLSPGNKAKPDDHRSRPGRPADFVLLKERTLDEAPRPPKKAMDYSSSSEEVESSEDDEEEGEGGPAEGSRDTPGGRSDGDTDSVSTMVVHDVEEITGTQPPYGGGTMVVQRTPEEERNLLHADSNGYTNLPDVVQPSHSPTENSKGQSPPSKDGSGDYQSRGLVKAPGKSSFTMFVDLGIYQPGGSGDSIPITALVGGEGTRLDQLQYDVRKGSVVNVNPTNTRAHSETPEIRKYKKRFNSEILCAALWGVNLLVGTENGLMLLDRSGQGKVYGLIGRRRFQQMDVLEGLNLLITISGKRNKLRVYYLSWLRNKILHNDPEVEKKQGWTTVGDMEGCGHYRVVKYERIKFLVIALKSSVEVYAWAPKPYHKFMAFKSFADLPHRPLLVDLTVEEGQRLKVIYGSSAGFHAVDVDSGNSYDIYIPVHIQSQITPHAIIFLPNTDGMEMLLCYEDEGVYVNTYGRIIKDVVLQWGEMPTSVAYICSNQIMGWGEKAIEIRSVETGHLDGVFMHKRAQRLKFLCERNDKVFFASVRSGGSSQVYFMTLNRNCIMNW | failed |
| MGDPQVNDTLAPSARHEGDALASAVAKVKRHVLPLFVIMFIVNYLDRVNIGFVRPHLESDLGISAAAYGFGAGLFFIGYALFEVPSNMLLQKVGARLWLTRIMFTWGLVATAMAFVQNETQFYVLRFLLGVAEAGFFPGVIYYFTRWLPAAERGKAIAIFLSGSALASLISGPLAGALMQIQGLGLHGWQWMLFIEGMASVALCFFVFFWLDSKPQDAKWLSKAEQDALVATIDREQQAREAIGAVRPSAWNLLKDRQIVLFCLIYFCIQLTIYAATFWLPSIIKRMGDLSDMQVGFFNSIPWLISILAMYAFAAGSARWKFQQAWVAGALLVAATGMFMSTTGGPVFAFVAVCFAAIGFKSASSLFWPIPQGYLDARIAAAVIALINSVGNLGGFVAPTTFGLLEQQTGSIQGGLYGLAVTSVLAAIAIFFVRTRPKGAPSDDLKAPSALGQTH | failed |
| MGDSHDVCRQLLPRAIFGINGKVENGVRQHPVTGSIIFALGNKIGIADYKKNTQEFVAGHTNTISCLDLSKSGKYMASGQINHMGFRGYVIIWNYDQRKEIARHDLHKVSVQAICFTAQDRCVVSIGGVDDGSVIVFDMEAFSPICQTPASRAISGNALTVRPLHNNPYFFVTAGDRHLRLWSILREEKKLYVQDVLMASKTRVFYCARINKTDEFAYLGTGTGDIVKIVLNCCDRDHVSKQGSTSCILGAFGTHNPRKPTGRDCNRYVNGVRALYVLEGGRLLIGAGNGDIELVEERTDVPLINFRDYPGPTWPYLRTLKKTHVSGRISSFVRSKTDMFYICTDTNEIYGLNIKTWVLKLLRTCHTKSVYCITFPKNYSGVFATSGKECIRIWSSGRKQELLRIMVYNFNCACVRFTHDGTSIVSVWNDGIIRAFTPITGRLIYAIPNAHNKGCSALAVASSGRLIVTGGIEGQVRVWKIDPYRQDLVGVLKDHSGPITSLDINYLDTEVISACTDGSCVIWDIKRMTRKQVVTANTQFMSASYFPTGVQVITCGSDGRIIYWMVYNGALIRELTASKKSSVNCLAINETGDYFITVGSDLQVKLWDYNSGAVVGIGSEHASSVISCAYSPCMTMFVTGSTDGSLIIWDVPRDFWGRPNPPDVTKYSLPKTSSKTRMSDVPSRVNSGTNLKTTKGENIDGLLKATPKDDLCCVECPPCAKKDTKGVDPYAECGIVPDVRKC | failed |
| MGEEEMPVHPDLEAFIESIPWHRHLGLKVLALHPGHARLVIPFQAGFTGNAARGALHGGIIASLADSCGNAALWTHFGPDDRIATINIGVDYFRPAPLADLMAEAEVRLLGNRIGNVHVRLAPLAEPSQTVAEGRTVCYVKRMSLEHHHHHH | failed |

From a protein production outcome set (Wang et al. 2014)
